Assay results taken from patent US20250257137A1 (IMBIOLOGICS, published 2025).
Read-outs that look alike come from different tables or passages of the source.

Columns and labels:
[1] = molecular target: T1, Fcα/µ receptor (R&D systems) (UniProt Q8WWV6 17-450); assay: ELISA, Fcα/µ receptor coated at 100 ng/well; detection HRP anti-IgM (F5µ)
T1 sequence: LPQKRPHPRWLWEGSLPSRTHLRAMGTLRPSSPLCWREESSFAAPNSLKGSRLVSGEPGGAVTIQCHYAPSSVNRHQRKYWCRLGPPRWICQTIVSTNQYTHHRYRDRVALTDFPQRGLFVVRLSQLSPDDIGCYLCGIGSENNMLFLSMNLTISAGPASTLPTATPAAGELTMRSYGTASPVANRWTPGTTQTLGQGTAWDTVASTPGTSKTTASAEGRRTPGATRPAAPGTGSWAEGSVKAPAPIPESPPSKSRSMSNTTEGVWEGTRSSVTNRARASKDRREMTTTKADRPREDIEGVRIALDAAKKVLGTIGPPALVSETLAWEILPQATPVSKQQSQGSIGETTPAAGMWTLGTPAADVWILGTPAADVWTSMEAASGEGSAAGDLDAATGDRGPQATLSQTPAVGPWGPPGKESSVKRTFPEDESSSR

[2] = molecular target: T2, pIgR (polymeric Ig receptor; R&D systems) (UniProt P01833 19-638); assay: ELISA, pIgR coated at 100 ng/well; detection HRP anti-IgM (F5µ)
T2 construct: also called pIg receptor
T2 sequence (P01833 19-638 limits assumed): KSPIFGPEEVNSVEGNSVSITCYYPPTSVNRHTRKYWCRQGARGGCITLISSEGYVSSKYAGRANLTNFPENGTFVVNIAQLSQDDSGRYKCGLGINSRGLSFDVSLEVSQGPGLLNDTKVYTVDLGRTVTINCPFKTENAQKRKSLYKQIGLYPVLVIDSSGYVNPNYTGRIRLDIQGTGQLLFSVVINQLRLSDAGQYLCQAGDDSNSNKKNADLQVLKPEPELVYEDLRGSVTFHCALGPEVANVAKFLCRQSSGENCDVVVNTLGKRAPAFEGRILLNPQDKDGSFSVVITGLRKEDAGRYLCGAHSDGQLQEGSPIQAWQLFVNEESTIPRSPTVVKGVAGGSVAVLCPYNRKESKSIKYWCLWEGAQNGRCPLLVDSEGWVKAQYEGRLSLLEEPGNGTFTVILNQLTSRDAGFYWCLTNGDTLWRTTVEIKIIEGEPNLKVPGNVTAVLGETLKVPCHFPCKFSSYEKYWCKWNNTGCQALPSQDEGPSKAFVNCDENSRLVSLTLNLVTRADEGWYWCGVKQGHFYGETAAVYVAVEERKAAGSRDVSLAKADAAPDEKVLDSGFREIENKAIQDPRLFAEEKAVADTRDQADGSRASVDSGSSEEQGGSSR

HLA-G protein antigen [3] = molecular target: T3, HLA-G protein antigen (human, UniProt P17693 25-308); assay: ELISA according to Example 1-4-1
T3 construct: also called HLA-G antigen

HLA-G protein antigen [4] = molecular target: T3, HLA-G protein antigen; assay: ELISA on HLA-G antigen, according to Example 1-4-1
HLA-G protein antigen [5] = molecular target: T3, HLA-G protein antigen; assay: SPR according to Example 1-4-1; HLA-G antigen
[6] = molecular target: T4, HLA-G-6× his tag (IMBiologics) (human, UniProt P17693 25-308); assay: blocking ELISA: ILT-2 antigen coated at 150 ng/well, HLA-G-6× his added with the dilution, detection HRP anti-6× his; blocked ligand ILT-2
T4 construct: also called recombinant HLA-G protein

[7] = molecular target: T5, HLA-G naturally expressed on JEG-3 cells (human, UniProt P17693 25-338); assay: flow cytometry on JEG-3 cells that naturally express HLA-G; detection anti-IgM-PE or anti-IgG Fc-FITC; MFI
T5 construct: whole, on cells; also called HLA-G expressing cells; HLA-G receptor in the cell

[8] = molecular target: T4, HLA-G-6× his tag (IMBiologics); assay: blocking ELISA: ILT-2 antigen coated at 150 ng/well, HLA-G-6× his added with the dilution, detection HRP anti-6× his; blocked ligand ILT-2; remark: listed apart in the source

B1: [(CMVpHLA)2-(linker)2-(IgG Fc region)-(IgM Fc region)]5-(J chain D105K) (Fc fusion)
chain (part 1 of 2): […]
chain (part 2 of 2): QDTAIRVFAIPPSFASIFLTKSTKLTCLVTDLTTYDSVTISWTRQNGEAVKTHTNISESHPNATFSAVGEASICEDDWNSGERFTCTVTHTDLPSPLKQTISRPKGVALHRPDVYLLPPAREQLNLRESATITCLVTGFSPADVFVQWMQRGQPLSPEKYVTSAPMPEPQAPGRYFAHSILTVSEEEWNTGETYTCVVAHEALPNRVTERTVDKSTGKPTLYNVSLVMSDTAGTCY
chain: […]
notes: not shown: IgG Fc
[1]
  binding result: no binding

B2: [(CMVpHLA)2-(linker)2-(IgG Fc region)-(IgM Fc region)]5-(J chain R106A) (Fc fusion)
chain (part 1 of 2): […]
chain (part 2 of 2): B1 chain (part 2 of 2)
chain: […]
notes: not shown: IgG Fc
[1]
  binding result: no binding

B3: [(CMVpHLA)2-(linker)2-(IgG Fc region)-(IgM Fc region)]5-(J chain R106V) (Fc fusion)
chain (part 1 of 2): […]
chain (part 2 of 2): B1 chain (part 2 of 2)
chain: […]
notes: not shown: IgG Fc
[2]
  binding result: no binding

B4: [(CMVpHLA)2-(linker)2-(IgG Fc region)-(IgM Fc region)]5-(J chain N107F) (Fc fusion)
chain (part 1 of 2): […]
chain (part 2 of 2): B1 chain (part 2 of 2)
chain: […]
notes: not shown: IgG Fc
[1]
  binding result: no binding

B5: [(CMVpHLA)2-(linker)2-(IgG Fc region)-(IgM Fc region)]5-(J chain R106Q) (Fc fusion)
chain (part 1 of 2): […]
chain (part 2 of 2): B1 chain (part 2 of 2)
chain: […]
notes: not shown: IgG Fc
[1]
  binding result: no binding

B6: [(A2014)2-(IgD hinge region)2-(IgM Fc region)]6-(J chain)0 (Fc fusion)
heavy: QVQLQQSGPGLLKPSQTLSLTCAISGDSVSSNRAAWNWIRQSPSRGLEWLGRTYYRSKWYNDYAVSVQGRITLIPDTSKNQFSLRLNSVTPEDTAVYYCASVRAVAPFDYWGQGVLVTVSSASTKGPSVFPLAPSSKSTSGGTAALGCLVKDYFPEPVTVSWNSGALTSGVHTFPAVLQSSGLYSLSSVVTVPSSSLGTQTYICNVNHKPSNTKVDKKVEPKSCRNTGRGGEEKKKEKEKEEQEERETKTPECPSHTQPLGVIAELPPKVSVFVPPRDGFFGNPRKSKLICQATGFSPRQIQVSWLREGKQVGSGVTTDQVQAEAKESGPTTYKVTSTLTIKESDWLSQSMFTCRVDHRGLTFQQNASSMCVPDQDTAIRVFAIPPSFASIFLTKSTKLTCLVTDLTTYDSVTISWTRQNGEAVKTHTNISESHPNATFSAVGEASICEDDWNSGERFTCTVTHTDLPSPLKQTISRPKGVALHRPDVYLLPPAREQLNLRESATITCLVTGFSPADVFVQWMQRGQPLSPEKYVTSAPMPEPQAPGRYFAHSILTVSEEEWNTGETYTCVVAHEALPNRVTERTVDKSTGKPTLYNVSLVMSDTAGTCY
light: not shown
HLA-G protein antigen [3]
  fold improvement of EC50 against the (A2014)-(IgGFc) control protein: ≥ 1000 fold
HLA-G protein antigen [4]
  EC50 (read off the curve): ~0.04 nM
HLA-G protein antigen [5]
  Kd: 0.00232 nM
  koff: 3.51e-05 s⁻¹
  kon: 1.48e+07 M⁻¹ s⁻¹

B7: (A2014)2-(IgG Fc region) (antibody, V domains shown)
VH: QVQLQQSGPGLLKPSQTLSLTCAISGDSVSSNRAAWNWIRQSPSRGLEWLGRTYYRSKWYNDYAVSVQGRITLIPDTSKNQFSLRLNSVTPEDTAVYYCASVRAVAPFDYWGQGVLVTVSS
VL: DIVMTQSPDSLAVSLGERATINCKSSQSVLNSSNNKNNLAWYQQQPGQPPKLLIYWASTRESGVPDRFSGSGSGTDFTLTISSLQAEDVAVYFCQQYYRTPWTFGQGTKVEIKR
notes: also called (A2014)-(IgG Fc); (A2014)-(IgGFc) control protein
[6]
  IC50 (read off the curve): ~30 nM
[7]
  EC50 (read off the curve): ~0.7 nM
[8]
  IC50 (read off the curve): ~8 nM
HLA-G protein antigen [5]
  Kd: 0.0259 nM
  koff: 0.000305 s⁻¹
  kon: 1.18e+07 M⁻¹ s⁻¹
